# Data as given in IntAct's records for PubMed 24658140.
# B1: Beta-arrestin-2 (Homo sapiens), P32121-4 (parent)
# chain: MGEKPGTRVFKKSSPNCKLTVYLGKRDFVDHLDKVDPVDGVVLVDPDYLKDRKVFVTLTCAFRYGREDLDVLGLSFRKDLFIATYQAFPPVPNPPRPPTRLQDRLLRKLGQHAHPFFFTVRMPLPSEGQGAGAGTVSGVGIPQNLPCSVTLQPGPEDTGKACGVDFEIRAFCAKSLEEKSHKRNSVRLVIRKVQFAPEKPGPQPSAETTRHFLMSDRSLHLEASLDKELYYHGEPLNVNVHVTNNSTKTVKKIKVSVRQYADICLFSTAQYKCPVAQLEQDDQVSPSSTFCKVYTITPLLSDNREKRGLALDGKLKHEDTNLASSTIVKEGANKEVLGILVSYRVKVKLVVSRGGDVSVELPFVLMHPKPHDHIPLPRPQSAAPETDVPVDTNLIEFDTNYATDDDIVFEDFARLRLKGMKDDDYDDQLC
# B2: Receptor tyrosine-protein kinase erbB-4 (Homo sapiens), Q15303 (parent)
# chain: MKPATGLWVWVSLLVAAGTVQPSDSQSVCAGTENKLSSLSDLEQQYRALRKYYENCEVVMGNLEITSIEHNRDLSFLRSVREVTGYVLVALNQFRYLPLENLRIIRGTKLYEDRYALAIFLNYRKDGNFGLQELGLKNLTEILNGGVYVDQNKFLCYADTIHWQDIVRNPWPSNLTLVSTNGSSGCGRCHKSCTGRCWGPTENHCQTLTRTVCAEQCDGRCYGPYVSDCCHRECAGGCSGPKDTDCFACMNFNDSGACVTQCPQTFVYNPTTFQLEHNFNAKYTYGAFCVKKCPHNFVVDSSSCVRACPSSKMEVEENGIKMCKPCTDICPKACDGIGTGSLMSAQTVDSSNIDKFINCTKINGNLIFLVTGIHGDPYNAIEAIDPEKLNVFRTVREITGFLNIQSWPPNMTDFSVFSNLVTIGGRVLYSGLSLLILKQQGITSLQFQSLKEISAGNIYITDNSNLCYYHTINWTTLFSTINQRIVIRDNRKAENCTAEGMVCNHLCSSDGCWGPGPDQCLSCRRFSRGRICIESCNLYDGEFREFENGSICVECDPQCEKMEDGLLTCHGPGPDNCTKCSHFKDGPNCVEKCPDGLQGANSFIFKYADPDRECHPCHPNCTQGCNGPTSHDCIYYPWTGHSTLPQHARTPLIAAGVIGGLFILVIVGLTFAVYVRRKSIKKKRALRRFLETELVEPLTPSGTAPNQAQLRILKETELKRVKVLGSGAFGTVYKGIWVPEGETVKIPVAIKILNETTGPKANVEFMDEALIMASMDHPHLVRLLGVCLSPTIQLVTQLMPHGCLLEYVHEHKDNIGSQLLLNWCVQIAKGMMYLEERRLVHRDLAARNVLVKSPNHVKITDFGLARLLEGDEKEYNADGGKMPIKWMALECIHYRKFTHQSDVWSYGVTIWELMTFGGKPYDGIPTREIPDLLEKGERLPQPPICTIDVYMVMVKCWMIDADSRPKFKELAAEFSRMARDPQRYLVIQGDDRMKLPSPNDSKFFQNLLDEEDLEDMMDAEEYLVPQAFNIPPPIYTSRARIDSNRSEIGHSPPPAYTPMSGNQFVYRDGGFAAEQGVSVPYRAPTSTIPEAPVAQGATAEIFDDSCCNGTLRKPVAPHVQEDSSTQRYSADPTVFAPERSPRGELDEEGYMTPMRDKPKQEYLNPVEENPFVSRRKNGDLQALDNPEYHNASNGPPKAEDEYVNEPLYLNTFANTLGKAEYLKNNILSMPEKAKKAFDNPDYWNHSLPPRSTLQHPDYLQEYSTKYFYKQNGRIRPIVAENPEYLSEFSLKPGTVLPPPPYRHRNTVV
# partner: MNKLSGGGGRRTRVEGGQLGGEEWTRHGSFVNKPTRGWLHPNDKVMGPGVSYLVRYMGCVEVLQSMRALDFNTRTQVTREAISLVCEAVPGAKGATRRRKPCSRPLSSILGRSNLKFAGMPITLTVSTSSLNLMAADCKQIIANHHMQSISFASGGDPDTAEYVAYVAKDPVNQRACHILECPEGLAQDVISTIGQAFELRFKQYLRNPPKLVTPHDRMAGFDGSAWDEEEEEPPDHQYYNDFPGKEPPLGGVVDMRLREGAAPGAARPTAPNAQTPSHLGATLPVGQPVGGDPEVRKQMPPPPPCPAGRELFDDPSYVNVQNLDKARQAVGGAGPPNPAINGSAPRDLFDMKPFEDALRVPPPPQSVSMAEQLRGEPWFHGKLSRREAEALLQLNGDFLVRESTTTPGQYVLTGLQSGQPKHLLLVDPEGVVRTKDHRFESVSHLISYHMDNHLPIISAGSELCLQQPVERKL
# Variants of: B1
# Conditions: with adrb2_human ADRB2, P07550
row,effect of a mutation on the interaction,Variant
1,decreasing interaction strength,MGEKPGTRVFKKSSPNCKLTVYLGKRDFVDHLDKVDPVDGVVLVDPDYLKDRKVFVTLTCAFRYGREDLDVLGLSFRKDLFIATYQAFPPVPNPPRPPTRLQDRLLRKLGQHAHPFFFTVRMPLPSEGQGAGAGTVSGVGIPQNLPCSVTLQPGPEDTGKACGVDFEIEAFCAKSLEEKSHKRNSVRLVIRKVQFAPEKPGPQPSAETTRHFLMSDRSLHLEASLDKELYYHGEPLNVNVHVTNNSTKTVKKIKVSVRQYADICLFSTAQYKCPVAQLEQDDQVSPSSTFCKVYTITPLLSDNREKRGLALDGKLKHEDTNLASSTIVKEGANKEVLGILVSYRVKVKLVVSRGGDVSVELPFVLMHPKPHDHIPLPRPQSAAPETDVPVDTNLIEFDTNYATDDDIVFEDFARLRLKGMKDDDYDDQLC [R169E]

# Variants of: B2
# Conditions: with SHC1, P29353-7
row,effect of a mutation on the interaction,Variant
1,increasing interaction strength,E872K
2,increasing interaction strength,E542K
